Data taken from patent publication CN111944047A (CHONGQING PREC BIOTECH CO LTD, dated 2020).

Target: T1, hBCMA-hFc (human, UniProt Q02223 1-54, limits assumed)
T1 construct: not shown: human Fc (hFc)
T1 sequence (looked up): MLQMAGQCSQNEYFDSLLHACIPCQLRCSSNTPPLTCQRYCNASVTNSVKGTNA
Assay: Fortebio Octet K2 / Nicoya OpenSPR, hBCMA-hFc loaded on sensor, scFv in solution

B1: ScFv1 (scFv)
scFv: DIVMTQSPDSLAVSLGERATINCRASESVSIHGTHLMHWYQQLPGTPPKLLIYAASNLESGVPDRFSGSGSGTDFTLKISPVEAEDVGVYYCQQSIEDPRTFGGGTKLEIKGSTSGSGKPGSGEGSTKGQVQLVQSGPALVKPGASVKVSCKASGYTFTDYYMNWVRQAHGQGLEWMGVINPYNGGTDYNQKFKGRVTMTRDTSISTAYMELSSLRSEDTAVYYCARSVYDYPFDYWGQGTLVTVSS
notes: The scFv is VL-Linker-VH, expressed in CHO cells and purified; Any tag on the purified protein is not described for ScFv1; also called 靶向BCMA人源化单克隆抗体; 抗BCMA的人源化单链抗体
B1 showed a Kd of 4.65 nM, a koff of 0.000438 s⁻¹ and a kon of 94200 M⁻¹ s⁻¹.

B2: ScFv2 (scFv)
scFv: DIVLTQSPASLAVSLGQRATITCRASESVSIHGTHLMHWYQQKPGQPPVLVIYAASNLESGVPARFSGSGSGTDFTLKIHPVEAEDVGVYYCQQSIEDPRTFGGGTKLEIKGSTSGSGKPGSGEGSTKGQVQLVQSGPEVKKPGASVKVSCKASGYTFTDYYMNWVRQMHGKGLEWMGVINPYNGGTDYNQKFKGRVTITADKSTSTAYMELSSLRSEDTAVYYCARSVYDYPFDYWGQGTLVTVSS
notes: also called 人源化ScFv2; 靶向BCMA人源化单克隆抗体
B2 was tested, and the Kd was 16.4 nM, the koff was 0.00437 s⁻¹ and the kon was 266000 M⁻¹ s⁻¹.
